Experimental data as given in article doi:10.1101/2021.07.08.451649 (bioRxiv, 2021).

Molecular target: Recombinant SARS-CoV-2 spike N-terminal domain (NTD) (SARS-CoV-2, ancestral (Wuhan-Hu-1), UniProt P0DTC2)
Experiment: BLI

B1: PVI.V6-14 monoclonal antibody (IgG) (antibody, V domains shown)
VH: QVQLQESGPGLVKPSETLSLTCTVSGGSISSSSYYWGWIRQPPGKGLEWIGSIYYSGSTYYNPSLKSRVTISVDTSKNQFSLKLSSVTAADTAVYYCARCRPEYYFGSGSYLDFDY
VL: DIQMTQSPSSVSASVGDRVTITCRASQGISSWLAWYQQKPGKAPKLLIYAASSLQSGVPSRFSGSGSGTDFTLTISSLQPEDFATYYCQQANSFPLTFGGGTKVEIK
Does B1 bind?
Result: binds
